# According to patent US20240293570A1 (priority 2021, published 2024):
# Read-outs that look alike come from different tables or passages of the source.
# How the values were obtained:
# [1] = Polymer (high molecular component) content of antibody-drug conjugates by SE-HPLC; type: physicochemical; conditions: ADC with Her2 antibody
# Experimental: (§1) Polymers (high molecular components) of the antibody-drug conjugates were tested using molecular exclusion high-performance liquid chromatography (SE-HPLC). A Biocore SEC chromatographic column (7.8×300 mm, […]) was used, and the mobile phase was 50 mM phosphate containing 300 mM sodium chloride (pH 6.8), with a flow rate of 0.5 mL/min. Samples of […] and 10 μl were injected. […] The polymer content of an antibody-drug conjugate was calculated using an area normalization method.
# [2] = Naked antibody content of antibody-drug conjugates by hydrophobic interaction chromatography (HIC); type: physicochemical; conditions: ADC with Her2 antibody
# Experimental: The content of naked antibodies in the antibody-drug conjugate was tested using hydrophobic interaction chromatography (HIC). A Biocore HIC-Butyl chromatographic column (4.6×150 mm, 5 μm) was used. The mobile phase A was a 100 mM phosphate aqueous solution containing 2 M ammonium sulfate (pH 7.0), and the mobile phase B was a 100 mM phosphate aqueous solution (pH 7.0): isopropanol=80:20 (V/V). Samples of 50 μg and 10 μl were injected. The mobile phase A at the flow rate of 1 mL/min ran at 100% for 3 minutes. Within 3-25 minutes, the mobile phase B ran from […] to 100%, while the mobile phase B decreased to 0% at 25.1 and ran to 30 minutes. […] The naked antibody content of the antibody-drug conjugate was calculated using an area normalization method based on the retention time of a naked antibody peak located by the antibody of the antibody-drug conjugate.
# [3] = Stability (placement) test of ADCs at 40° C. in dark for 14 days, DAR and polymer content; type: physicochemical
# Experimental: as §1
# (§2) A drug-antibody conjugating ratio (also known as drug-antibody ratio, abbreviated as DAR) of the antibody-drug conjugate was tested using reversed-phase high-performance liquid chromatography-mass chromatography (RP-HPLC-MS). The ADC sample was diluted with 50 mmol/L Tris buffer (pH 8.0) to 1 mg/ml. A fresh dithiothreitol (DTT) stock solution was added to achieve a final DTT concentration of 50 mmol/L. Incubation was performed at 37° C. for 30 minutes. A PLRP-S chromatographic column (1000 Å pores, 2.1×50 mm, 5) μm) was used, and the column temperature was 70° C. The flow rate was 0.25 mL/min. […] of sample was injected; the mobile phase A was an aqueous solution of 0.1% formic acid (V/V) and 0.025% trifluoroacetic acid (V/V), and the mobile phase B was an acetonitrile solution of 0.1% formic acid (V/V) and 0.025% trifluoroacetic acid (V/V); the running time was 0-3 minutes, where 27% of mobile phase B ran for 3 minutes, and the mobile phase B ran from 27% to 49% within 3-25 minutes, from 49% to 95% within 25-26 minutes, at 95% within […], from 95% to 27% within 30-31.5 minutes, and at 27% for 31.5-45 minutes. […] Mass spectrometry drying gas was at a temperature of 350° C. and a flow rate of 7.0 L/min, the pressure of an atomizer was 40 psi, capillary voltage was positive 3000V and negative 3000V, and the mass range was 500-1600 m/z. The molecular weight of each mass spectrometry peak (ranging from 20000 to 70000) was calculated by deconvolution and compared with light and heavy chain molecular weights of un-conjugated antibodies to calculate a drug load at each peak, so as to determine the load of a corresponding ultraviolet peak. Area percentages of heavy and light chain ultraviolet peaks were calculated through integration, and a weighted average DAR of the antibody-drug conjugate was calculated by combining the area percentages with the drug load distribution of each peak.
# Stability testing method: The stability of the obtained ADCs was tested for 14 days. The ADCs were placed at 40° C. in dark. Sampling points were days 0, 7, and 14. The polymer content and DAR value of samples at different sampling points were tested according to the method in Experimental Example 1.
# [4] = type: physicochemical; conditions: ADC with Her2 antibody, RP-HPLC-MS
# Experimental: as §2
SMILES,Polymer content (%) [1] [%],Naked antibody content (%) [2] [%],"DAR ([3]; Day 0, 40° C. in dark)","Polymer content (%) ([3]; Day 0, 40° C. in dark)","DAR ([3]; Day 7, 40° C. in dark)","Polymer content (%) ([3]; Day 7, 40° C. in dark)","DAR ([3]; Day 14, 40° C. in dark)","Polymer content (%) ([3]; Day 14, 40° C. in dark)",DAR [4]
C=C1C[C@@H]2CC[C@@]34C[C@H]5OC6C(O[C@H]7CC[C@H](CC(=O)C[C@@H]8[C@@H](OC)[C@@H](C[C@H](O)CNC(=O)CNC(=O)[C@H](Cc9ccccc9)NC(=O)CNC(=O)CNC(=O)CCOCCOCCN(CCOCCOCCC(=O)NCC(=O)NCC(=O)N[C@@H](Cc9ccccc9)C(=O)NCC(=O)NCOCC(=O)N[C@H]9CCc%10c(C)c(F)cc%11nc%12c(c9c%10%11)Cn9c-%12cc%10c(c9=O)COC(=O)[C@]%10(O)CC)C(=O)CN9CCOCCOCCOCCOCCN(C(=O)CCOCCOCCOCCOCCOCCOCCOCCOCCN%10C(=O)C=CC%10=O)CCOCCOCCOCCOCC9)O[C@H]8C[C@H]8O[C@@H](CC[C@@H]1O2)C[C@@H](C)C8=C)O[C@@H]7[C@@H]6O3)[C@H]5O4 [Example 15],1.20,3.63,4.07,1.20,4.07,1.21,4.11,1.27,4.07
C=C1C[C@@H]2CC[C@@]34C[C@H]5OC6C(O[C@H]7CC[C@H](CC(=O)C[C@@H]8[C@@H](OC)[C@@H](C[C@H](O)CNC(=O)CNC(=O)[C@H](Cc9ccccc9)NC(=O)CNC(=O)CNC(=O)CCOCCOCCN(CCOCCOCCC(=O)NCC(=O)NCC(=O)N[C@@H](Cc9ccccc9)C(=O)NCC(=O)NCOCC(=O)N[C@H]9CCc%10c(C)c(F)cc%11nc%12c(c9c%10%11)Cn9c-%12cc%10c(c9=O)COC(=O)[C@]%10(O)CC)C9CCC(NC(=O)CN%10CCOCCOCCOCCN(C(=O)CCCCCN%11C(=O)C=CC%11=O)CCOCCOCCOCC%10)CC9)O[C@H]8C[C@H]8O[C@@H](CC[C@@H]1O2)C[C@@H](C)C8=C)O[C@@H]7[C@@H]6O3)[C@H]5O4 (stereo partly drawn) [Example 19],1.53,5.22,3.92,1.53,3.91,1.56,3.87,1.49,3.92
C=C1C[C@@H]2CC[C@@]34C[C@H]5OC6C(O[C@H]7CC[C@H](CC(=O)C[C@@H]8[C@@H](OC)[C@@H](C[C@H](O)CNC(=O)CNC(=O)[C@H](Cc9ccccc9)NC(=O)CNC(=O)CNC(=O)CCOCCOCCN(CCOCCOCCC(=O)NCC(=O)NCC(=O)N[C@@H](Cc9ccccc9)C(=O)NCC(=O)NCOCC(=O)N[C@H]9CCc%10c(C)c(F)cc%11nc%12c(c9c%10%11)Cn9c-%12cc%10c(c9=O)COC(=O)[C@]%10(O)CC)C9CCC(NC(=O)CN%10CCOCCOCCOCCN(C(=O)CCOCCOCCOCCOCCN%11C(=O)C=CC%11=O)CCOCCOCCOCC%10)CC9)O[C@H]8C[C@H]8O[C@@H](CC[C@@H]1O2)C[C@@H](C)C8=C)O[C@@H]7[C@@H]6O3)[C@H]5O4 (stereo partly drawn) [Example 20],1.48,4.23,3.85,1.48,3.87,1.50,3.89,1.43,3.85
C=C1C[C@@H]2CC[C@@]34C[C@H]5OC6C(O[C@H]7CC[C@H](CC(=O)C[C@@H]8[C@@H](OC)[C@@H](C[C@H](O)CNC(=O)CNC(=O)[C@H](Cc9ccccc9)NC(=O)CNC(=O)CNC(=O)CN9CCOCCN(C(=O)CCN%10C(=O)C=CC%10=O)CCOCC9)O[C@H]8C[C@H]8O[C@@H](CC[C@@H]1O2)C[C@@H](C)C8=C)O[C@@H]7[C@@H]6O3)[C@H]5O4 [Example 21],0.87,2.56,4.08,0.87,4.06,0.90,4.10,0.88,4.08
CCc1c2c(nc3ccc(O)cc13)-c1cc3c(c(=O)n1C2)CCC(=O)[C@@]3(CC)OC(=O)N(C)CCN(C)C(=O)COCNC(=O)CNC(=O)[C@H](Cc1ccccc1)NC(=O)CNC(=O)CNC(=O)CN1CCOCCN(C(=O)CCN2C(=O)C=CC2=O)CCOCC1 [Example 23],0.41,0.00,4.12,0.41,4.15,0.45,4.16,0.56,4.12
